Experimental data published in article PMC5587760, “Halotolerant aminopeptidase M29 from Mesorhizobium SEMIA 3007 with biotechnological potential and its impact on biofilm synthesis” (Scientific Reports, 2017).

What was measured:
[1] = biological target: MesoAmp, aminopeptidase M29 (Aminopeptidase T) from Mesorhizobium SEMIA 3007 (Mesorhizobium SEMIA 3007); experiment: SEC; Hiload16/600 Superdex 200, 100 mM Tris-HCl pH 8.0, 200 mM NaCl, 5% (w/v) glycerol, 0.5 mL/min; native mass estimated from a calibration curve of standard proteins and compared with the mass on SDS-PAGE
[2] = system: CC(C)C[C@H](N)C(=O)Nc1ccc([N+](=O)[O-])cc1; experiment: purified protein; conditions: 3 mM Co2+, pH 8.5, 40 °C (abstract: 45 °C optimum)

Substance | stoichiometry N [1] | Km [2] [µM] | kcat [2] [s⁻¹]
MesoAmp, aminopeptidase M29 (Aminopeptidase T) from Mesorhizobium SEMIA 3007 (enzyme) | 2 |  | 
MesoAmp (Mesorhizobium sp. SEMIA 3007) |  | 236.4 ± 18.2 | 712.1 ± 88.12
